Article PMC4103454, “FAN1 Activity on Asymmetric Repair Intermediates Is Mediated by an Atypical Monomeric Virus-type Replication-Repair Nuclease Domain” (Cell Reports, 2014)

B3: tryptic fragment 795-1,012 of hFAN1_360 (domain or fragment, human, UniProt Q9Y2M0 795-1012, looked up)
chain: SVFVMEAGEAADPTTVLCSVEELALAHYRRSGFDQGIHGEGSTFSTLYGLLLWDIIFMDGIPDVFRNACQAFPLDLCTDSFFTSRRPALEARLQLIHDAPEESLRAWVAATWHEQEGRVASLVSWDRFTSLQQAQDLVSCLGGPVLSGVCRHLAADFRHCRGGLPDLVVWNSQSRHFKLVEVKGPNDRLSHKQMIWLAELQKLGAEVEVCHVVAVGAK
notes: human FAN1, protected tryptic fragment identified by mass spectrometry as amino acids 795-1,012; The three fragments are said to correspond broadly to the SAP, TPR and VRR-Nuc homology regions; also called amino acids 795–1,012; source: limited tryptic proteolysis of purified hFAN1_360 (from E. coli)

How the values were obtained:
[1] = target: saNUC, VRR-Nuc single-domain protein of Salmonella enteritidis typing phage 3 (Salmonella enteritidis typing phage 3); assay: AUC; sedimentation velocity, 50,000 rpm, 277 K, 50 mM Tris/HCl pH 8.0, 300 mM NaCl, 0.50 mM TCEP, interference optics, SEDFIT c(s) and c(M)
[2] = target: stNUC, VRR-Nuc single-domain protein of Streptococcus equi bacteriophage P9 (Streptococcus equi bacteriophage P9); assay: as above
[3] = system: psNUC; assay: EMSA; details: stoichiometric binding at 1 nM DNA; 'indicative of a subnanomolar' KD; EMSA: 1 nM radiolabelled DNA, 20 C, 30 min, binding buffer in Supplemental Information (composition and pH not in material); 2.5% Ficoll-400, 8% native PAGE in …
[4] = system: stNUC; assay: EMSA; details: EMSA: 1 nM radiolabelled DNA, 20 C, 30 min, binding buffer in Supplemental Information (composition and pH not in material); 2.5% Ficoll-400, 8% native PAGE in …
[5] = target: the molecule itself; assay: AUC; sedimentation velocity as above, psNUC at concentrations above 70 uM; dimer to tetramer
[6] = target: the molecule itself; assay: AUC; sedimentation velocity, 50,000 rpm, 277 K, 50 mM Tris/HCl pH 8.0, 300 mM NaCl, 0.50 mM TCEP, interference optics, SEDFIT c(s) and c(M)
[7] = target: B3; assay: SEC; S200 gel filtration of a preparative scale tryptic digest of hFAN1_360; SDS-PAGE of fractions across the peak; details: both partners purified
[8] = target: T1, tryptic fragment 515-790 of hFAN1_360 (human, UniProt Q9Y2M0 515-790); assay: as above; details: both partners purified
T1 construct: human FAN1, protected tryptic fragment identified by mass spectrometry as amino acids 515-790; The three fragments are said to correspond broadly to the SAP, TPR and VRR-Nuc homology regions; also called amino acids 515–790; source: limited tryptic proteolysis of purified hFAN1_360 (from E. coli)
T1 sequence (looked up): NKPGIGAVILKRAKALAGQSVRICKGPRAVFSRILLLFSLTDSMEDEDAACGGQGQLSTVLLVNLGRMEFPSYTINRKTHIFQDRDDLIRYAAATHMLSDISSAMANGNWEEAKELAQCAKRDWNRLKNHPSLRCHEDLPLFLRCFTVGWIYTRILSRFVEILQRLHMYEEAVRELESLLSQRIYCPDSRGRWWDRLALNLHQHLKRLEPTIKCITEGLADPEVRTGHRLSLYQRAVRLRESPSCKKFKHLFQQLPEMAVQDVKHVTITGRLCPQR

## saNUC, VRR-Nuc single-domain protein of Salmonella enteritidis typing phage 3 (enzyme)
[1]
  stoichiometry N: 2

## stNUC, VRR-Nuc single-domain protein of Streptococcus equi bacteriophage P9 (enzyme)
[2]
  stoichiometry N: 2

## four-way DNA junction (HJ)
[3]
  Kd: < 0.001 µM
[4]
  Kd: 0.2 µM

B1: psNUC, VRR-Nuc single-domain protein of Psychrobacter (enzyme)
chain: RLKGLTEDEVQTVVMNWSKRQKFKGRPLFDYIHHSPNGGKRAAKIGSSGKRYSPEAAKFKRMGVKAGYPDLIIDIARGAYHGLRIEIKKDGNSYATPAQKERIEMLAKEGYCAVVAKGIDNVISVIQQYIKLGDFDGVSQLTADK
notes: psNUC, standalone VRR-Nuc domain protein of Psychrobacter, UniProt A5WF35; Synthetic gene (GeneART) in pGEX 6P-1; The structure was solved by SAD on a selenomethionine derivative; source: E. coli, purified (glutathione-Sepharose, 3C protease cleavage, Superdex gel filtration)
[5]
  stoichiometry N: 4
[6]
  stoichiometry N: 2

B2: tryptic fragment 360-507 of hFAN1_360 (domain or fragment, human, UniProt Q9Y2M0 360-507, looked up)
chain: GSSCNGPGQTTGHPYYLRSFLVVLKTVLENEDDMLLFDEQEKGIVTKFYQLSATGQKLYVRLFQRKLSWIKMTKLEYEEIALDLTPVIEELTNAGFLQTESELQELSEVLELLSAPELKSLAKTFHLVNPNGQKQQLVDAFLKLAKQR
notes: human FAN1, protected tryptic fragment identified by mass spectrometry as amino acids 360-507; The three fragments are said to correspond broadly to the SAP, TPR and VRR-Nuc homology regions; also called amino acids 360–507; source: limited tryptic proteolysis of purified hFAN1_360 (from E. coli)
[7]
  binding result: binds
[8]
  binding result: binds

## B3
[8]
  binding result: binds
